Assay results taken from a protein production outcome set (Wang et al. 2014).

Test: label from the status in PepcDB records

| Sequence | protein production |
| --- | --- |
| MGEGALAPGLQLLLRACEQGDTDTARRLLEPGGEPVAGSEAGAEPAGPEAARAVEAGTPVPVDCSDEAGNSALQLAAAGGHEPLVRFLLRRGASVNSRNHYGWSALMQAARCGHASVAHLLLDHGADVNAQNRLGASVLTVASRGGHLGVVKLLLEAGATVDHRNPSGESTASGGSRDELLGITALMAAVQHGHEAVVRLLMEWGADPNHTARTVGWSPLMLAALLGKLSVVQQLVEKGANPDHLGVLEKTAFEVALDRKHRDLADYLDPLTTVRPKTDEEKRRPDIFHALKMGNFQLVKEIADEDPNHVNLVNGDGATPLMLAAVTGQLPLVQLLVEKHADMNKQDSVHGWTALMQATYHGNKEIVKYLLNQGADVTLRAKNGYTAFDLVMLLNDPDTELVRLLASVCMQVNKDRGGRPSHRPPLPHSKARQPWSIPMLPDDKGGLKSWWSRMSNRFRKLKLMQTLPRGLAANQPLPFSDEPELALDSTMRAPPQDRTNHLGPPEAAHAAKDSGPGNPRREKDDVLLTTMLRNGAPFPRLPSDKLKAVIPPFLPPSSFELWSSDRSRTCPNGKADPMKTVLPPRASRAHPVGCVGTDGAAGRPVKFPSISRSPTSPASSGNFNHSPHSSGGASGVGSMSRLGGELHNRSGGSVDSVLSQIAAQRKKAAGLCEQKPPCQQSSPVGPATGSSPPELPASLLGSGSGSSNVTSSSKKLDPGKRPPSGTSATSKSTSPTLTPSPSPKGHTAESSVSSSSSHRQSKSSGGSSSGTITDEDELTGILKKLSLEKYQPIFEEQEVDMEAFLTLTDGDLQELGIKTDGSRQQILAAISELNAGKGRERQILQETIHNFHSSFESSASNTRAPGNSPSMAGWVRPEETVSSRR | failed |
| MGEKPWQPLLQSFEKLSNCVQTHLSNFIGIKNTPPSSQSTIQNPIISLDSSPPIATNSSSLQKLPLKDKSTGPVTKEDLGRATWTFLHTLAAQMTILSRMYPCRECADHFKEILRSNPAQAGSQEEFSQWLCHVHNTVNRSLGKLVFPCERVDARWGKLECEQKSCDLHGTSMDF | failed |
| MGENYKFFNHKDCEFFPCHKTNKPEEFNCLFCYCPLYALGENCGGNFKYTDKGIKDCSSCILPHKKDNYNYIMSKFQDLVKITSKKLEHHHHHH | failed |
| MGESYSSGYSLVVRVIANDRSGLLRDITTILANEKVNVLGVASRSDTKQQLATIDMDIEIYNLQVLGRVLAKLNQLPDVIDARRQQGALEHHHHHH | not failed |
| MGEVFAGRYELVDPIGRGGVGAVWRAWDHRRRRYVAAKVLQQRDAHSLLRFVREQALRIDHPHVLAPASWAADDDQVLFTMDLVTGGSLVHLVGDYGPLPPEFVCTLLDQLLSGLAAVHGEGVVHRDIKPANLLLEATGTGRPRLRLSDFGIAMRLGEPRLTETNLVVGTPGYLAPEQMMGAEPDFPSDLFAVGLVALYLLEGAKPDAKVLVQHFAEHGTPPAPRGIPEPLWQVVATLLQPDPSARFRTATGARKALAAAVELLPEPGPDDELIEIFDQVGPLPTGFGPEGPFKRASGVDDVPTDPRRPAGTPPGVDPSPPATPPTPPPAPPWQGTPPAGPSSGLDRPSPGSPGPPPTGPDSTPASPPPGTPVTATGTPSAPGLPPASDQGWTPSTPSGPTAPPSAPSAPSAPSAPGPTRPAPHGTHSEEVPLAERPGAMSETGSFHLPPPQPTVTPTSDAAASDAAAEAAQPPAPHPAFTGGPRGLPPDRAPGRSQHPAPHGPPLTARSLAPSPARRADVPTAAYTARNPRSAPPAQHRGARRRRRPGPPARVALPVLLLALACYAVGFWALTRI | failed |
| MGEVFQKEAYAQELIDYYNQSTNDVLKRTASISENEKPRVLFLVYDQRKNSYWTPGGEFYQNNLITMAGGKTVSSDLPTGKAQINVEQAASWNPDVIITSAHTMEYPSTKVKEDVLTDEGWKEINAVKSGNVYAMPFDGESWDTLGSKYVLGLYWTAKTLEHHHHHH | not failed |
| MGFIQWCLAHLNYWTIMFLMAIESSFIPFPSEIIVPPAAWMAATGQNGLNVFLVILFATIGAGIGAAVNYILSLLLGRPIVYAFANSKLGHLCLINEEKVRYAERYFDKNGAVSTLVGRLIPAVRQLISIPAGLARMKFLPFISYTMLGAGIWNCILAAIGYNLAKVPGIETQEQLLEKVNKYSHEIGFSIMGVVVVVLLIMFYKKKRRSARKGN | failed |
| MGGGDGRRIDAFVSYSRAADSRLAPSIQRGLARLAKKWYRTRALNVFRDQTDLSASHALGASIERALADARFFVLLASPAAAESKWVAKEIEFWQRNRTSDTFLVALTDGTIRWDDEAGDFDWSVTDALPRSLSGYFEAEPLWQDLTWSRDADRLSLWHAGFRDAVATLAAPIHGSSKRALDNAEVKEHRALLLVGALATALILTLAVSFGIQYWFATAERDRANANARDATVMSAIQRAQVELADAETGYDVSAYRRLMAARSLAGRPSVEGAAYDAALDAAYSRPNLLRVTEVDSGPDSRAAMTVDGGRVAFGGKEQPTLWSPGTGRPSGPALEAAETTDSKALALAFSRDGKRLAAAYEAAVVLWDVASGKKINEFATDRRTTTSLALSPDGTTVAVAGGGLRIWDAGSGRRIGEPLGVTGDRVVFSPDGRKLAFDALNDGGSEVHVRGVGAEGAGEVVIPYPHDVISGIAFTPDTDALAVGTEDGGLRLWDPDSGAAEGRAMSGHQGAIRAIAFAAGGSRIATAGADRTIRQWNAETGSPIGFPLTGHAGPVDFIAFSRGGSELVSLGEDATLRRWDAGNALLRTGPDDASAPDALAVAPRGAKVAVGGREGVRVFNQETGVQVAALDLPQGVLSLSYSPDGTSLLIVSPDALRLWEEGAEARTVTLDSSVGPVAGAAFMPHGRQIVVGSYAGKLLFEDLDDEATGTPGASIDITCAARHLAVSQDGMQVAYACDDTGGVADAEAGGVRTFEAEDRVSALVISPDGRTLILGTLDGTLWRLEHGAEALVGVGVHRGAVRSVAYGPDGRWFASAGEDGSVVVHPHGAREISARIPAHTGPVEAVAFSGDGSRLISLGADKAARVWHVFRDPPGDLCERITYNMSESDWKKWISDSFGYRDQCAGKPRAHG | failed |
| MGGGGGSRGPGHAARIAAPPFRPPSPCPAMLAAGEMCGAAHCPARPAPVSCRDRPRRFSSPSPLPGSLFFSPVAAGRRVSRPIFLFCSFGGFCMQRFLTLALLGAAALGGALAQNAAPAPAPAPVAQPAPAPQTAPATPAAQPAAPAVRPPAANYVVVGNLYYDQGKFDQAYVAFRTAAELDPRNTQALLGLGRSQVRLRLYAPAVDTLRRLTTVDPQNVSGYVALSQAYQQQYMGSGDRASVTGNLDAALAVLQQAEAAVTALPEADRALAQSKLLNERGSVYRLQGKPTQAIEAFRQASALNPENSLLLFNLGDMYAASGQLPLAVSALQQAVILDPRDPYNRAYYAKLLALSGNLTSARVEAAQASRLVTGNAYATGQYGVVSYLAGDRTTARTQLAQAVRLDPLRYPEFYYYLGRLDLDGSDLKSARDNLTRAVALNSTSAEYAYYLGLAYERGVPGVAADNVRARENYDKALKLAPGYKQAQEGADRLKPPSSGN | failed |
| MGGHPQLRLVKALLLLGLNPVSASLQDQHCESLSLASNISGLQCNASVDLIGTCWPRSPAGQLVVRPCPAFFYGVRYNTTNNGYRECLANGSWAARVNYSECQEILNEEKKSKVHYHVAVIINYLGHCISLVALLVAFVLFLRLRPGCTHWGDQADGALEVGAPWSGAPFQVRRSIRCLRNIIHWNLISAFILRNATWFVVQLTMSPEVHQSNVGWCRLVTAAYNYFHVTNFFWMFGEGCYLHTAIVLTYSTDRLRKWMFICIGWGVPFPIIVAWAIGKLYYDNEKCWFGKRPGVYTDYIYQGPMILVLLINFIFLFNIVRILMTKLRASTTSETIQYRKAVKATLVLLPLLGITYMLFFVNPGEDEVSRVVFIYFNSFLESFQGFFVSVFYCFLNSEVRSAIRKRWHRWQDKHSIRARVARAMSIPTSPTRVSFHSIKQSTAV | failed |
| MGGIPDITPYPLTYSLGGVIPLSSVLEMLWVEKYRPRSLDDIVDQKHVVERLKQFVKQRNMPHLLFAGPPGTGKTTAAHALAHDLFGENYRQYMLELNASDERGINVIREKVKEFARSRTPPEIPFKIVLLDEADNMTSDAQQALRRLMELYSSVTRFILIANYPSKIIDPIQSRCAFFRFQPLSKQDVIERLRYIAENEGVDYEEEALDAIYEISEGDMRKAINVLQAASYLGKVTVDAVYRVVGMAKPREVREMLATALKGDFTAARSLLRKIMIEYGMSGEDVARQIHRELFSTELKMPEELRVLAADYLGEVHYRLVEGSDDDIQLSAFLAWLTMMSRKLEV | not failed |
| MGGIYRLSLKSTEATAERLSCDTRCNYEDRDLAYSPDGRWLAIARRFSNISEDIFIRDLASAHEKRLTQGLEDIRGLSWTPDSQALVFATEDSGSSNGFTLDINTAQIRSLDVEGMSYPSSVSAEGELVYHQYHRQFQMAYFSLGDKVPGSLFPLLYSGVSHRNPDYSPEAKRIVFVSSETG | failed |
